Assay results as given in patent publication US20220323561A1 (ENTEROME S A, published 2022).

Biological target: T1, HLA-A*0201 molecule expressed on human T2 cells (human)
T1 construct: also called HLA-A2
Test: T2 cells (HLA-A*0201), anti-HLA-A2 flow cytometry

Row | Binder | binding result
1 | FLAFVPLDV [CD37-B14] | binds
2 | FLFGAPASA [TNFRSF13C-B11] | binds
3 | YMNSLSLAL (Printed as YMNSLSLAL) [MS4A1-B42] | binds
4 | VLAFVPLGV [CD37-B15] | binds
5 | AMNSLSLTV [MS4A1-B43] | binds
6 | LLFGAPAGV [TNFRSF13C-B12] | binds

The remaining lines, values ahead:

Row | binding result | Binder
7 | binds | RVFEHPELV [CD22-B13]
8 | binds | VLFGAPAYL [TNFRSF13C-B13]
9 | binds | ILAFVPLYL [CD37-B12]
